Measured values taken from the supplement of paper PMC10126150.
± gives the standard deviation of the averaged measurements.

Test system: ATP
Assay: switch fluorescence ratio, 500 uM ATP over buffer (Cy3 cluster intensity, sum of 5 cycles each) (fold (ratio)); higher = stronger signal-on switching upon ATP binding; sequences stand for … in TCGTCGGCAGCGTCAGATGTGTATAAGAGACAGTTTTTTTTTTTTTTTTTTTTTTTTT…TC
Conditions: aptamer strand: ATP DNA aptamer (quencher-CACCTGGGGGAGTATTGCGGAGGAAGG + anchor), 100 nM annealed; ATP concentration: 500 uM
Summary of the method: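 Clusters carrying Cy3-labelled switching strands on a modified Illumina MiSeq flow-cell were annealed to 100 nM quencher-labelled ATP aptamer and imaged in selection buffer. They were imaged again after 15 min with 500 uM ATP at 22 °C, over five buffer/ATP cycles with NaOH stripping and re-annealing in between. For each cluster, the fluorescence ratio is the summed Cy3 intensity of the target cycles divided by that of the buffer cycles, averaged per switch-domain sequence. Clusters outside 100-1000 RFU were left out.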
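Note: ATP exposure 15 min at 22 °C before imaging.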

Row | Sequence | switch fluorescence ratio
1 | ATATGCATGG | 0.969 ± 0.014
2 | ATATGCCCT | 1.04 ± 0.03
3 | ATATGCTTTC | 0.994 ± 0.011
4 | ATATGGAGCA | 1.03 ± 0.046
5 | ATATGGTGGT | 1.03 ± 0.023
6 | ATATGGTGTA | 0.959 ± 0.021
7 | ATATGGTGTT | 1.01 ± 0.025
8 | ATATGTCAAG | 1.0025 ± 0.00017
9 | ATATGTGACG | 1 ± 0.033
10 | ATATGTGGCT | 0.99 ± 0.054
11 | ATATGTGGGG | 1.01 ± 0.011
12 | ATATGTTATG | 0.982 ± 0.015
13 | ATATGTTGTC | 0.894 ± 0.11
14 | ATATGTTGTT | 0.98 ± 0.025
15 | ATATTAAAGT | 1.038 ± 0.0047
16 | ATATTAAGAT | 0.988 ± 0.028
17 | ATATTAAGTC | 1.02 ± 0.013
18 | ATATTAGATT | 1.019 ± 0.0076
19 | ATATTAGGTC | 1.01 ± 0.016
20 | ATATTAGTAT | 1.01 ± 0.038
21 | ATATTATTTT | 0.9788 ± 0.0047
22 | ATATTCAGTA | 1 ± 0.015
23 | ATATTCTTAG | 1.01 ± 0.013
24 | ATATTCTTTG | 0.997 ± 0.016
25 | ATATTGAGGT | 1 ± 0.013
26 | ATATTGATTA | 1.02 ± 0.032

Row | Sequence | switch fluorescence ratio
27 | ATATTGGGGT | 1.01 ± 0.019
28 | ATATTGGTAC | 1.034 ± 0.0013
29 | ATATTTAAAA | 0.985 ± 0.021
30 | ATATTTACTA | 1.11 ± 0.11
31 | ATATTTGAGT | 0.9878 ± 0.0045
32 | ATATTTGGCG | 1.007 ± 0.0029
33 | ATATTTTATG | 1.03 ± 0.044
34 | ATATTTTCAG | 0.994 ± 0.012
35 | ATATTTTGGG | 1.003 ± 0.0089
36 | ATCAAAATTT | 1.03 ± 0.028
37 | ATCAAAGCGG | 0.998 ± 0.0094
38 | ATCAAAGGGA | 0.976 ± 0.048
39 | ATCAACGGAA | 1.08 ± 0.013
40 | ATCAACGGCA | 1.07 ± 0.023
41 | ATCACGGGGG | 1.02 ± 0.019
42 | ATCACTGATT | 1.057 ± 0.0085
43 | ATCAGAAGGT | 0.995 ± 0.021
44 | ATCAGAATGA | 1.013 ± 0.0023
45 | ATCAGATTAC | 1.025 ± 0.0092
46 | ATCAGATTTT | 0.9867 ± 0.0034
47 | ATCAGCCATA | 1.03 ± 0.036
48 | ATCAGGGCGG | 0.9887 ± 0.0089
49 | ATCAGGGGCA | 1.057 ± 0.0049
50 | ATCAGGGTAT | 1.07 ± 0.089
51 | ATCAGGGTGC | 1.06 ± 0.051
52 | ATCAGGTGGT | 1.19 ± 0.036

Row | Sequence | switch fluorescence ratio
53 | ATCAGTATTA | 1.02 ± 0.016
54 | ATCAGTTCCT | 1.04 ± 0.013
55 | ATCATACACT | 1.06 ± 0.018
56 | ATCATACGGG | 1.03 ± 0.02
57 | ATCATACTGT | 1.007 ± 0.0024
58 | ATCATAGGGG | 1 ± 0.016
59 | ATCATCTGAC | 1.095 ± 0.0095
60 | ATCATGATTC | 0.983 ± 0.018
61 | ATCATGGGAC | 1.03 ± 0.0069
62 | ATCATTAGGG | 0.976 ± 0.032
63 | ATCATTAGTA | 0.999 ± 0.021
64 | ATCCAGGGGT | 1.06 ± 0.022
65 | ATCCAGGGTA | 1.01 ± 0.03
66 | ATCCAGGTAG | 1.75 ± 0.076
67 | ATCCCGAAGC | 1.93 ± 0.18
68 | ATCCCGGGGA | 0.962 ± 0.014
69 | ATCCCGTAGG | 0.9905 ± 0.0084
70 | ATCCCTAAAA | 1.0207 ± 0.00031
71 | ATCCCTCATA | 1.01 ± 0.018
72 | ATCCGCCGCT | 1.72 ± 0.089
73 | ATCCGGACTT | 1.02 ± 0.034
74 | ATCCGGCGAT | 1.35 ± 0.018
75 | ATCCGGGGTT | 1.06 ± 0.057
76 | ATCCGGGTGG | 1 ± 0.059
77 | ATCCGGTTTG | 0.982 ± 0.041
78 | ATCCGTAATT | 2.6 ± 0.22

Row | Sequence | switch fluorescence ratio
79 | ATCCGTTTTT | 1 ± 0.016
80 | ATCCTAGTGT | 1.04 ± 0.052
81 | ATCCTTGTTT | 0.997 ± 0.083
82 | ATCCTTTCTT | 1.003 ± 0.0062
83 | ATCGAAAAGG | 0.998 ± 0.027
84 | ATCGAAGGTA | 0.985 ± 0.013
85 | ATCGAATTGG | 0.998 ± 0.026
86 | ATCGAGGCGT | 1.01 ± 0.019
87 | ATCGAGGTCC | 1.01 ± 0.074
88 | ATCGATGAGC | 1.006 ± 0.004
89 | ATCGATGCTT | 0.979 ± 0.012
90 | ATCGATTGAG | 0.971 ± 0.015
91 | ATCGATTTCT | 1.004 ± 0.0049
92 | ATCGCAGATT | 1.03 ± 0.019
93 | ATCGCCCGTT | 1.01 ± 0.016
94 | ATCGGCGGTG | 0.986 ± 0.025
95 | ATCGGCTCTC | 1.03 ± 0.025
96 | ATCGGCTCTG | 0.991 ± 0.043
97 | ATCGGGAATT | 1.009 ± 0.0044
98 | ATCGGGAGGG | 1 ± 0.013
99 | ATCGGGATTA | 0.987 ± 0.021
100 | ATCGGGGGCT | 0.98 ± 0.038
101 | ATCGGGGTGG | 1 ± 0.071
102 | ATCGGGTATG | 0.9987 ± 0.0082
103 | ATCGGTATTT | 1.19 ± 0.39
104 | ATCGGTCGGG | 1.011 ± 0.0088

Row | Sequence | switch fluorescence ratio
105 | ATCGGTCTTT | 0.997 ± 0.084
106 | ATCGGTGACA | 1 ± 0.035
107 | ATCGGTGTGT | 0.989 ± 0.045
108 | ATCGGTTGTG | 1.01 ± 0.029
109 | ATCGTATATG | 0.972 ± 0.043
110 | ATCGTATGTA | 0.9708 ± 0.0055
111 | ATCGTGGTCA | 0.987 ± 0.018
112 | ATCGTGTGTG | 0.991 ± 0.035
113 | ATCGTGTTGT | 1.02 ± 0.015
114 | ATCGTTGTGG | 0.9893 ± 0.0048
115 | ATCTAAAGGG | 0.999 ± 0.015
116 | ATCTATCCTT | 1.01 ± 0.036
117 | ATCTATCTGT | 1 ± 0.027
118 | ATCTCACTT | 1.02 ± 0.03
119 | ATCTCCTGCC | 1.475 ± 0.0051
120 | ATCTGATGGC | 0.957 ± 0.039
121 | ATCTGCATGA | 1.01 ± 0.063
122 | ATCTGCCGGT | 0.981 ± 0.017
123 | ATCTGCGGGA | 1.05 ± 0.042
124 | ATCTGGAACG | 0.988 ± 0.02
125 | ATCTGGGTTA | 0.993 ± 0.013
126 | ATCTGGTCAT | 0.972 ± 0.016
127 | ATCTGTGGA | 1.015 ± 0.0024
128 | ATCTGTTGTC | 1.06 ± 0.021
129 | ATCTTCGGTT | 1 ± 0.055
130 | ATCTTGATTG | 1.03 ± 0.016

Row | Sequence | switch fluorescence ratio
131 | ATCTTGGGGC | 0.984 ± 0.023
132 | ATCTTGGTCC | 0.9948 ± 0.003
133 | ATCTTGTGGG | 0.9678 ± 0.0064
134 | ATCTTTATGG | 0.964 ± 0.014
135 | ATCTTTTGAG | 0.97588 ± 0.00047
136 | ATGAAAAAAG | 0.993 ± 0.016
137 | ATGAAAAAAT | 0.974 ± 0.015
138 | ATGAAAAGGA | 0.97123 ± 0.00096
139 | ATGAAAGGCT | 1.02 ± 0.0022
140 | ATGAAAGTAG | 1.005 ± 0.0012
141 | ATGAAAGTCT | 0.976 ± 0.042
142 | ATGAACGTTT | 1.2 ± 0.28
143 | ATGAAGCATG | 1.08 ± 0.04
144 | ATGAAGGCGG | 1.05 ± 0.068
145 | ATGAAGGGGA | 1 ± 0.049
146 | ATGAATATTA | 0.99254 ± 0.00014
147 | ATGAATCGTC | 0.9927 ± 0.0037
148 | ATGAATCTAA | 1.01 ± 0.046
149 | ATGAATTCGG | 1.01 ± 0.011
150 | ATGACACGGA | 1.04 ± 0.01
151 | ATGACCCCTC | 1.044 ± 0.007
152 | ATGACGCGTC | 0.982 ± 0.045
153 | ATGAGAATGC | 1.024 ± 0.0063
